The values that follow come from paper PMC10638432, “Biodistribution and function of coupled polymer-DNA origami nanostructures”.

For this data set, the target named is recombinant human TNF-alpha (biotinylated, R&D Systems BT210) (human, UniProt P01375 77-233). Kind of data set: flow cytometry (FACS) bead binding; TT linker did not affect binding; PBS-/- (no Ca/Mg) with 0.005% Tween-20, 1 h at 37 C, biotinylated TNFa on streptavidin magnetic beads; pH not stated. Particulars: protein: commercial; tags: biotin; chain copies: 3; label: 5' ATTO647N. In general terms: Flow cytometry measures light scatter and fluorescence of single cells or particles in a stream.
recombinant human TNF-alpha (biotinylated, R&D Systems BT210), sequence (P01375 77-233): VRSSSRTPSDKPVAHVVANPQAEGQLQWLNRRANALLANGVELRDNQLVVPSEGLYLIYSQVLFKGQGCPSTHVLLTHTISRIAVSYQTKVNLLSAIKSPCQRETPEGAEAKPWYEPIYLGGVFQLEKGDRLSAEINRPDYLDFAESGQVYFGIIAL

B1: TNFa aptamer polyT linker (hTNFa long rod aptamer) (ssDNA)
DNA: TTTGGTGGATGGCGCAGTCGGCGACAA
As to B1, the binding result was “binds”.
